Assay [1] deals with Human surfactant protein-A (SP-A) (human) (UniProt Q8IWL2).
The target is the same in assay [2]. Nature of the assay: SEC; gel filtration HPLC, two Biosep-SEC-S 4000 columns in series; SP-A (1.62 mg/ml) and α1-AT (1 mg/ml), 1:50 molar ratio, incubated 24 hrs at 37°C in phosphate buffer; eluted with 100 mM Na2HPO4, 2 mM CaCl2, pH 6.8. (Size exclusion chromatography separates by hydrodynamic size, large species first.)

Our source for the turnover number per inactivation of HNE, unmodified SP-A with α1-AT and stoichiometry N (molecules of α1-AT per molecule of SP-A) values is paper PMC1343571.

For “Wild-type α1-antitrypsin (M α1-AT) (from UniProt P01009 25-418) (natural protein)”, the turnover number per inactivation of HNE, unmodified SP-A with α1-AT in assay [1] stood at 24. Moreover, in assay [2], the stoichiometry N (molecules of α1-AT per molecule of SP-A) came out at 18.
